Columns and labels:
[1] = Enzyme kinetics assay with C18:1 glucosylceramide substrate, glucose detected by HPAEC-PAD; assay type: biochemical
Procedure: Sonication was used to achieve a consistent substrate preparation. A sonicator was pre-set to 60% AMPL and 5 minutes. A 4 oz. amber bottle of substrate dilution buffer (4 mM taurocholic acid, 0.2% v/v oleic acid in citrate/phosphate buffer pH 5.0) was placed in the noise isolation chamber and the sonicator probe was immersed into the solution. The substrate dilution buffer was sonicated at 60% AMPL for 5 minutes. Following sonication, the noise isolation chamber was opened. A second cycle of sonication at 60% AMPL for 5 minutes was initiated while the amber bottle was gently swirled. After 5 minutes, the substrate dilution buffer was cloudy. Approximately 15-20 mg of C18:1 glucosylceramide was weighed in a clean 2 oz. amber bottle. Sonicated substrate dilution buffer was added to bring the concentration of C18:1 glucosylceramide to 0.64 mg/mL (approximately 880 μM). Next, the same sonication steps were repeated for the 2 oz. amber bottle of 880 μM C18:1 glucosylceramide, with the additional consideration that, prior to the step of gently swirling the bottle while sonicating, it was ensured that all substrate particles were in the biphasic mixture. Sonication and swirling were continued until there were no visible particles in the mixture.
After the sonication procedure, two stocks were prepared for use in the assay. A first reagent reservoir filled with sonicated substrate dilution buffer. A second reagent reservoir was filled with 6 mL sonicated substrate dilution buffer and 2 mL of the 880 μM C18:1 glucosylceramide (final substrate concentration of 220 μM C18:1 glucosylceramide).
A dilution series of substrate was prepared in a 96-well plate having columns 1-12, rows A-H, and a well volume of 0.5 mL. Each well of rows A-G was filled with 170 μL substrate dilution buffer. In addition, 200 μL substrate solution of different concentrations were transferred to the appropriate wells of rows A to G according to Table 2. Substrate dilution buffer and substrate solution were mixed by pipetting.
Frozen experimental and assay control samples were thawed in a 37° C. water bath for <5 min. In the present examples, the sample is a sample of enzyme. After thawing, each tube was placed on ice. Dilutions of the samples were then prepared at room temperature. To prepare the sample dilutions, sample dilution buffer (50 mM citrate buffer pH 6.0, 0.75 mg/ml BSA) was placed on ice in centrifuge tubes, each tube containing 990 μL sonicated sample dilution buffer. Tubes of sample dilution buffer were briefly vortexed (1-3 seconds) and pulse centrifuged to collect the liquid to the bottom of the tube. A 10 μL aliquot of each sample was transferred into a dedicated tube of sample dilution buffer to prepare a 1:100 dilution. Samples were diluted in triplicate. Samples were briefly vortexed to ensure proper mixing. Next, a 10 μL aliquot of each of 1:100 diluted sample was transferred to a dedicated second tube having been preloaded with 990 μL sample dilution buffer, resulting in a 1:10,000 dilution. Samples were briefly vortexed to ensure proper mixing. Next, the 1:10,000 dilution was used to prepare a 1 mL dilution having a final concentration of 0.02 ng/μL. In particular, the volume of the 1:10,000 dilution needed to dilute the enzyme to 0.02 ng/μL in 1 mL was determined and transferred from the second tube into the a third dedicated tube preloaded with an amount of sample dilution buffer calculated to result in a total volume of 1 mL at 0.02 ng/μL. Accordingly, when 10 μL of 0.02 ng/μL enzyme is mixed with 100 μL of substrate solution, the final concentration of enzyme is 0.0290 nM, assuming a monomer with a relative molecular mass of 62.8 kDa. Samples were briefly vortexed to ensure proper mixing. Final dilution tubes were placed on ice.
Briefly, velaglucerase alfa was incubated with C18:1 glucosylceramide at eight concentrations of substrate (2.70-200 μM) and in 110 μL reactions for 20 min at 37° C. with appropriate standards and/or controls. […]

[2] = Velaglucerase activity at varying levels of sodium taurocholate; assay type: biochemical; details: range tested 2 mM to 25 mM sodium taurocholate
Procedure: Assays of velaglucerase activity were carried out in the presence of varying levels of sodium taurocholate or oleic acid. Sodium taurocholate is an anionic detergent that has been, in some cases, used to facilitate lipid-based substrate solubility in aqueous environments. The effect of sodium taurocholate was examined over a concentration range of 2 mM to 25 mM (FIG. 6).

[3] = Photo Stress (forced degradation, oxidation by light exposure)

B1: velaglucerase: recombinant form of glucocerebrosidase approved as long-term enzyme replacement therapy for Gaucher disease (SEQ ID NO: 1) (protein)
chain: ARPCIPKSFGYSSVVCVCNATYCDSFDPPTFPALGTFSRYESTRSGRRMELSMGPIQANHTGTGLLLTLQPEQKFQKVKGFGGAMTDAAALNILALSPPAQNLLLKSYFSEEGIGYNIIRVPMASCDFSIRTYTYADTPDDFQLHNFSLPEEDTKLKIPLIHRALQLAQRPVSLLASPWTSPTWLKTNGAVNGKGSLKGQPGDIYHQTWARYFVKFLDAYAEHKLQFWAVTAENEPSAGLLSGYPFQCLGFTPEHQRDFIARDLGPTLANSTHHNVRLLMLDDQRLLLPHWAKVVLTDPEAAKYVHGIAVHWYLDFLAPAKATLGETHRLFPNTMLFASEACVGSKFWEQSVRLGSWDRGMQYSHSIITNLLYHVVGWTDWNLALNPEGGPNWVRNFVDS
In the case of B1, the Km ([1]; Baseline (unstressed control)) is reported as 4.9 µM, the kcat ([1]; Baseline (unstressed control)) is reported as 90.7 s⁻¹ and the Km [1, 3] is reported as 6.7 µM. For the same molecule, the kcat [1, 3] was 76.8 s⁻¹, the “change in kcat, stressed sample vs baseline” value ([1]; photo stress vs unstressed control) was “clear decrease” and the “change in Km, stressed sample vs baseline” value ([1]; photo stress vs unstressed control, not considered significant) was “minor increase”. For the same molecule, the “optimal concentration of sodium taurocholate” value [2] was 6.5 mM and the “sodium taurocholate concentration above which activity gradually declined” value [2] was “above 8 mM”.

Reference: patent US10760112B2, “Enzymatic activity assays for glucocerebrosidase” (Shire Human Genetic Therapies, Inc., priority 2014, dated 2020)
